Measurements: publication doi:10.1101/2024.03.12.584494

What was measured:
Assay in all cases: co-IP
[1] = target: mGFP-PICK1 5K-E (mouse) (UniProt Q62083)
[2] = target: mGFP-KIBRA ΔC2 (mouse) (UniProt Q5SXA9)
[3] = target: mCherry-PICK1 WT (mouse) (UniProt Q62083)
[4] = target: mGFP-KIBRA ΔCCL (mouse) (UniProt Q5SXA9)
[5] = target: mGFP-KIBRA ΔCt (mouse) (UniProt Q5SXA9)
[6] = target: mGFP-KIBRA ΔαBR (mouse) (UniProt Q5SXA9)
[7] = target: mCherry-KIBRA WT (mouse) (UniProt Q5SXA9)
mCherry-KIBRA WT (mouse), sequence (Q5SXA9 whole entry): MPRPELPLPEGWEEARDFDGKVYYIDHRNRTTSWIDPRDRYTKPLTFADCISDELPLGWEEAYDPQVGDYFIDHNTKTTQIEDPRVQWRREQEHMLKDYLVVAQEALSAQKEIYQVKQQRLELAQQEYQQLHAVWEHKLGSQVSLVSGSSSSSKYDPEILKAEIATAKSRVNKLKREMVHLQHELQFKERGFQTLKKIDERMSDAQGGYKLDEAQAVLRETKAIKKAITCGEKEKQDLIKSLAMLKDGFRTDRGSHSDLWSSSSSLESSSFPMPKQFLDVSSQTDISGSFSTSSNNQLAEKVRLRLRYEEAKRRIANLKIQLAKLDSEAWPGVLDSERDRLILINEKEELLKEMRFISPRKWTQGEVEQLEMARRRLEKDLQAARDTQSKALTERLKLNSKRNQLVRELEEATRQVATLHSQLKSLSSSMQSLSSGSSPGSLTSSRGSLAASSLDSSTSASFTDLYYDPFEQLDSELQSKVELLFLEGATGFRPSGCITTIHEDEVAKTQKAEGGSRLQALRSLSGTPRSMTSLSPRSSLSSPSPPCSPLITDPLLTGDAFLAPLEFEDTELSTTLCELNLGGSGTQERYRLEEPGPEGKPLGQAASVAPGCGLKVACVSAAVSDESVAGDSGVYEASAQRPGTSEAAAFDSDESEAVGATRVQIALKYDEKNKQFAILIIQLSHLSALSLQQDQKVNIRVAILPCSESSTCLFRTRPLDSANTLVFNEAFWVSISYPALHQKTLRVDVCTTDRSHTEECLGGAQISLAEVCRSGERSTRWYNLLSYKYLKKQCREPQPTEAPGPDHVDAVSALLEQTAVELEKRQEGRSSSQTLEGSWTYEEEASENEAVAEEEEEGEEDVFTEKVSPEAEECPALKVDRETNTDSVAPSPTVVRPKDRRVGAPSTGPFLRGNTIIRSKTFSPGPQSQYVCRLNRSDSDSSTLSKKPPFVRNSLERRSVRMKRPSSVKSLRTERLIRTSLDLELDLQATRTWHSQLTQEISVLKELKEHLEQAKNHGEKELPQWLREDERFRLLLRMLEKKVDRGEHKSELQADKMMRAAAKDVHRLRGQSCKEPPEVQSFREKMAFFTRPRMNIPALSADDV

mCherry-PICK1 WT (mouse), sequence (Q62083 whole entry): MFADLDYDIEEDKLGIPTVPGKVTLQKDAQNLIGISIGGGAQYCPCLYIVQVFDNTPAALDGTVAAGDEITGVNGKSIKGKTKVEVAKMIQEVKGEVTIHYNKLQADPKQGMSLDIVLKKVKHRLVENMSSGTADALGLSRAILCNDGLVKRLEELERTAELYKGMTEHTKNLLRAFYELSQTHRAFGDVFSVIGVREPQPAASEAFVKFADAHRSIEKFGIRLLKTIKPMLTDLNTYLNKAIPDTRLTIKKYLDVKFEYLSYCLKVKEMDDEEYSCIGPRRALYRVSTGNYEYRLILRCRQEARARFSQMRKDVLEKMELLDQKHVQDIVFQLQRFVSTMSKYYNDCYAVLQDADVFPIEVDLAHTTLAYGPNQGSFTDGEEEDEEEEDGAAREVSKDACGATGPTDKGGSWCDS
mGFP-KIBRA ΔαBR, sequence (Q5SXA9 whole entry, stated change not applied): as the sequence (Q5SXA9 whole entry) above
mGFP-KIBRA ΔCCL, sequence (Q5SXA9 whole entry, stated change not applied): as the sequence (Q5SXA9 whole entry) above
mGFP-KIBRA ΔCt, sequence (Q5SXA9 whole entry, stated change not applied): as the sequence (Q5SXA9 whole entry) above
mGFP-KIBRA ΔC2, sequence (Q5SXA9 whole entry, stated change not applied): as the sequence (Q5SXA9 whole entry) above
mGFP-PICK1 5K-E (mouse), sequence (Q62083 whole entry): as the sequence (Q62083 whole entry) above
mGFP-KIBRA ΔWW, sequence (Q5SXA9 whole entry, stated change not applied): as the sequence (Q5SXA9 whole entry) above
mCherry-KIBRA WT, sequence (Q5SXA9 whole entry): as above
mGFP-PICK1 KD-AA, sequence (Q62083 whole entry): as the sequence (Q62083 whole entry) above
mGFP-PICK1 BAR (domain or fragment), sequence (Q62083 whole entry, the tested form may be a part): as the sequence (Q62083 whole entry) above
Myc-GluA2, sequence (P19491 22-883): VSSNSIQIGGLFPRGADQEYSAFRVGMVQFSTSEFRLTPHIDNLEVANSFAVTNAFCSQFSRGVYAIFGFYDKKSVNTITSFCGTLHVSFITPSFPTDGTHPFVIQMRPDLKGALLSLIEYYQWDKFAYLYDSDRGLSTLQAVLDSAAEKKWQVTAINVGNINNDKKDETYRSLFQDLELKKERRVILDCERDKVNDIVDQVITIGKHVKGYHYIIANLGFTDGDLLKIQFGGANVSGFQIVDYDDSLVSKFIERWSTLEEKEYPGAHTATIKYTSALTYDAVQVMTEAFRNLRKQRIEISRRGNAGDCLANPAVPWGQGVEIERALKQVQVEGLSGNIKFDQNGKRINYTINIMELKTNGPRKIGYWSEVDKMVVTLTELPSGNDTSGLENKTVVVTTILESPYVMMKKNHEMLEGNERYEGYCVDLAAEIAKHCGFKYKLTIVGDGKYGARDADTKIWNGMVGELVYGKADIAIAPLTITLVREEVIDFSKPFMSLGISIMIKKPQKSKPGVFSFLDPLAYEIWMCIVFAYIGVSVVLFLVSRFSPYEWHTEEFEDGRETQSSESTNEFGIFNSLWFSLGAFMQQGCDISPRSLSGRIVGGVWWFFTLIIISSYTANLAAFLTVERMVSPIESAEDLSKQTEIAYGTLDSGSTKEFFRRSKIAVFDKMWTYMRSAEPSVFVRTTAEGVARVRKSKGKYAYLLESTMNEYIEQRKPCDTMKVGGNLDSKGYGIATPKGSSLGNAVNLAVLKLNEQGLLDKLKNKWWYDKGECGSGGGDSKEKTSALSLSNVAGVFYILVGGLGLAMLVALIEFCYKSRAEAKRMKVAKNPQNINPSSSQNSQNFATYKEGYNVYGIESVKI

Myc-GluA2 (from UniProt P19491 22-883) (receptor)
GluA2 signal with PICK1 5K-E normalized to +PICK1 WT [1]: 0.27

mCherry-KIBRA WT (from UniProt Q5SXA9 1-1104) (natural protein)
KIBRA signal with PICK1 5K-E normalized to +PICK1 WT [1]: 0.63

mGFP-KIBRA ΔC2 (from UniProt Q5SXA9 1-1104) (natural protein)
co-precipitated mGFP-KIBRA normalized to WT sample from the same blot [2]: 1.36 | co-precipitated KIBRA normalized to WT sample from the same blot [3]: 1.08

mGFP-KIBRA ΔCCL (from UniProt Q5SXA9 1-1104) (natural protein)
co-precipitated KIBRA normalized to WT sample from the same blot [3]: 1.53 | co-precipitated mGFP-KIBRA normalized to WT sample from the same blot [4]: 1.6

mGFP-KIBRA ΔCt (from UniProt Q5SXA9 1-1104) (natural protein)
co-precipitated mGFP-KIBRA normalized to WT sample from the same blot [5]: 1 | co-precipitated KIBRA normalized to WT sample from the same blot [3]: 5.79

mGFP-KIBRA ΔWW (from UniProt Q5SXA9 1-1104) (natural protein)
co-precipitated KIBRA normalized to WT sample from the same blot [3]: 1.87

mGFP-KIBRA ΔαBR (from UniProt Q5SXA9 1-1104) (natural protein)
co-precipitated mGFP-KIBRA normalized to WT sample from the same blot [6]: 1.55 | co-precipitated KIBRA normalized to WT sample from the same blot [3]: 1.84

mGFP-PICK1 BAR (domain or fragment)
PICK1 pull down normalized to input and same-gel WT PICK1 [7]: 2.06

mGFP-PICK1 KD-AA (from UniProt Q62083 1-416) (natural protein)
PICK1 pull down normalized to input and same-gel WT PICK1 [7]: 0.8
